Reference: the Human Domainome abundance scans (Beltran et al. 2025)

B1: Endonuclease CUE2, residues 9 to 47; numbered along this chain, P36075 (parent)
chain: HESKLSILMDMFPAISKSKLQVHLLENNNDLDLTIGLLL

Variants of: B1
Test: abundance fitness (aPCA) (normalised: wild type 0, dead -1); higher = more abundant; growth selection in yeast, the domain comes from the species named
Conditions: Saccharomyces cerevisiae (strain ATCC 204508 / S288c)

Abundance fitness: each site, then its substitutions
K4: R -0.038 | M 0.188 | D 0.115 | N -0.023 | Y 0.127 | H 0.098 | G -0.241 | A -0.117 | P -0.16 | V -0.37 | Q -0.023 | W -0.572 | C -0.061 | S -0.001 | L -0.13 | I -0.127 | F -0.259 | E -0.011
F12: E -0.884 | D -1.07 | T -0.446 | K -0.966 | P -0.611 | S -0.808 | V -0.9 | L -0.644 | M -0.548 | W -0.596 | R -0.865 | G -0.905
Q21: L -0.24 | V -0.118 | N 0.807 | R -0.085 | G -0.139 | P -1.19 | H -0.124 | C -0.061 | F 0.012 | W -0.423 | S 0.033 | D -0.119 | T -0.128 | E -0.021 | K -0.094 | I 0.155 | M -0.089
A14: D -0.118 | W -0.047 | G 0.012 | F -0.033 | S 0.068 | M -0.133 | L -0.053 | R -0.018 | Q 0.012 | E 0.068 | C -0.093 | P -0.383 | T -0.163 | V -0.079
M11: G -0.746 | D -0.758 | P -0.748 | N -0.209 | W -0.413 | S -0.421 | Q -0.077 | A -0.16 | H -0.297 | V -0.447 | E -0.274 | L -0.184
K17: S -0.129 | P -0.082 | G -0.255 | I -0.387 | R -0.074 | Q 0.013 | E -0.122 | Y -0.077 | C -0.356 | W -0.471 | D -0.286 | T -0.263 | A -0.156 | M -0.307 | V -0.196 | F -0.343 | L -0.316 | H -0.085
P13: G -0.834 | I -0.804 | L -0.795 | Q -0.752 | A -0.602 | F -0.868 | H -1.06 | T -0.861 | E -0.349 | W -1.04 | R -0.951 | M -0.72 | S -0.806 | D -0.898 | K -0.781 | C -0.67
V22: C 0.119 | P -0.464 | K 0.03 | R 0.026 | S -0.055 | D -0.069 | E -0.05 | M 0.019 | L -0.08 | T -0.006 | I 0.039 | W -0.147 | G -0.071 | A -0.001
K19: Q -0.048 | D -0.081 | C -0.248 | N 0.063 | P -0.818 | T -0.015 | F -0.123 | V -0.038 | E -0.053 | L -0.143 | R -0.01 | W -0.248 | A -0.051 | S -0.059 | H -0.151 | Y -0.364 | M -0.095
S3: A -0.156 | V -0.329 | P -0.453 | L -0.184 | W -0.428 | G -0.145 | R -0.329 | M -0.042 | H 0.014 | Q -0.057 | E -0.106 | C -0.146 | T -0.344 | K -0.094
D10: H -0.145 | F -0.463 | E 0.052 | W -0.691 | L -0.441 | N -0.086 | Q -0.183 | P -0.587 | G -0.099 | V -0.336 | C -0.123 | S -0.299 | K -0.191 | I -0.12
M9: Y -0.057 | P -1.14 | W -0.28 | S -0.011 | V 0.014 | K -0.155 | C -0.159 | T -0.054 | N -0.402 | L 0.107 | G -0.011 | A -0.042 | R -0.049 | D -0.255 | E -0.03 | Q -0.013
L25: D -0.181 | C -0.002 | A 0.076
I15: E -0.017 | P -1 | T -0.115 | V -0.115 | F 0.163 | D -0.293 | L -0.08 | S -0.214 | R -0.343 | W -0.023 | G -0.735 | Q -0.081 | H 0.022 | K -0.142 | M -0.078
H23: G -0.342 | Q -0.151 | V -0.146 | L -0.139 | K -0.338 | R -0.124 | W -0.305 | P -0.622 | D -0.544 | Y -0.154 | N -0.026 | A -0.075 | E -0.163 | M -0.165
E2: P -0.035 | L 0.109 | I 0.14 | S -0.319 | Q 0.113 | N 0.167 | K 0.153 | G -0.11 | C 0.283 | R 0.13 | M 0.19 | V -0.195 | W -0.349 | T 0.157 | D -0.133
L5: A -0.708 | V -0.002 | T -0.338 | H -1 | P -0.738 | C -0.306 | W -0.779 | K -0.771 | D -0.928 | S -0.856 | E -0.683 | R -0.906 | Q -0.775 | M -0.031 | G -0.817
I7: P -0.633 | V 0.095 | C 0.153 | K 0.078 | T 0.059 | G -0.544 | F -0.282 | W -0.406 | A 0.071 | E -0.158 | D 0.22 | S -0.114 | M 0.058 | Q 0.137
L8: Q -0.96 | R -0.883 | M -0.631 | G -0.913 | W -0.947 | F -0.701 | D -1.16 | E -0.931 | V -0.596 | S -0.915 | A -1.02 | K -0.968
S18: W -0.178 | P -0.214 | M -0.11 | R -0.038 | V 0.154 | T 0.015 | Q 0.082 | D -0.164 | L -0.103 | K -0.03 | A -0.063 | F 0.056
L24: P -0.982 | G -0.929 | R -0.855 | Q -1.08 | M -0.31 | W -1.05 | I -1 | T -0.595 | A -0.898 | Y -0.57 | V -0.849 | E -0.88
S16: R -0.15 | W -0.654 | H 0.384 | K -0.114 | P 0.025 | D -0.048 | T -0.179 | F -0.045 | M -0.395 | A -0.026 | N -0.171 | V -0.29 | L -0.37 | Q -0.057 | E -0.09 | G -0.167 | C -0.133
L20: E -0.748 | I 0.161 | V -0.311 | W -0.613 | C -0.058 | K -0.838 | R -0.853 | S -0.656 | T -0.702 | H -0.559 | Q -0.705
S6: P -0.342 | A 0.041 | W -0.443 | Q 0 | Y 0.32 | G -0.073 | E -0.107 | L -0.098 | R -0.027 | T -0.011 | H -0.38 | M -0.221
